Among the data in article PMC4001850 are stoichiometry N and stoichiometry N (Aβ molecules per eAβPP dimer) values, retold here.

Values joined by “and” are separate entries in the source; they are usually repeats but may differ in a detail not shown here. Equal entries are not always repeated. Where two headings read alike, the source gives them in different places.

In experiment [1] the target is Aβ_(1-42) peptide. Description: cross-linking.
For experiment [2], the target named is eAβPP_(19-624), His-Patch thioredoxin fusion of the entire ectodomain of AβPP695 (82-kDa) (human) (UniProt P05067). Briefly: SAXS.
Experiment [3] concerns the target Aβ_(1-40) peptide. Description: cross-linking.
The target in experiment [4] is Aβ_(1-40) peptide. Description: cross-linking. The source holds these as a separate data set.

By stoichiometry N is commonly meant a count of units in the complex or per binding partner. In turn, Aβ_(1-42) peptide came in with a stoichiometry N in experiment [1] of 3. Further, the stoichiometry N (Aβ molecules per eAβPP dimer) in experiment [2] came to 6.

With Aβ_(1-40) peptide, the stoichiometry N in experiment [3] was 2; in experiment [4], 12 and 18. For the same substance, in experiment [2], the stoichiometry N (Aβ molecules per eAβPP dimer) amounted to 8.
